According to patent publication US20240409935:

Tests used:
GFP-PACT, O75569 = biological target: T1, GFP-PACT, O75569
T1 chain: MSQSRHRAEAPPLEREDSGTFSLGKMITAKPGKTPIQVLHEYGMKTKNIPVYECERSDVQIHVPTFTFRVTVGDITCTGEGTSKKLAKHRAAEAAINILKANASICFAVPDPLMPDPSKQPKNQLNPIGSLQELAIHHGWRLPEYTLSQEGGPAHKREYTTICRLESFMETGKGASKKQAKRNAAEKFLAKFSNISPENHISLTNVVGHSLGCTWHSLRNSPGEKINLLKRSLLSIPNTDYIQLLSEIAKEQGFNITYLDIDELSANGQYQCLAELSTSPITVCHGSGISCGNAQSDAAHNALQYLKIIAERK

endogenous PACT, O75569 = biological target: T2, endogenous PACT, O75569
T2 chain: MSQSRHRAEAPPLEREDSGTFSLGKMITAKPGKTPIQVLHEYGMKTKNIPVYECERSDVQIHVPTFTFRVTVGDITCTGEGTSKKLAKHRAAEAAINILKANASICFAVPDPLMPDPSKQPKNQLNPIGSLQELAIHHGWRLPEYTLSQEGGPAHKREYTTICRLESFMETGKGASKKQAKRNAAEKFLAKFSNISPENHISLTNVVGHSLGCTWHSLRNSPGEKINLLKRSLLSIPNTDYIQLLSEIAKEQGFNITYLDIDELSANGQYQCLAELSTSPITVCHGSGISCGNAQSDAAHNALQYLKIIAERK

B1: endogenous PKR (protein)
chain: AGDLSAGFFMEELNTYRQKQGVVLKYQELPNSGPPHDRRFTFQVIIDGREFPEGEGRSKKEAKNAAAKLAVEILNKEKKAVSPLLLTTTNSSEGLSMGNYIGLINRIAQKKRLTVNYEQCASGVHGPEGFHYKCKMGQKEYSIGTGSTKQEAKQLAAKLAYLQILSEETSVKSDYLSSGSFATTCESQSNSLVTSTLASESSSEGDFSADTSEINSNSDSLNSSSLLMNGLRNNQRKAKRSLAPRFDLPDMKETKYTVDKRFGMDFKEIELIGSGGFGQVFKAKHRIDGKTYVIKRVKYNNEKAEREVKALAKLDHVNIVHYNGCWDGFDYDPETSDDSLESSDYDPENSKNSSRSKTKCLFIQMEFCDKGTLEQWIEKRRGEKLDKVLALELFEQITKGVDYIHSKKLIHRDLKPSNIFLVDTKQVKIGDFGLVTSLKNDGKRTRSKGTLRYMSPEQISSQDYGKEVDLYALGLILAELLHVCDTAFETSKFFTDLRDGIISDIFDKKEKTLLQKLLSKKPEDRPNTSEILRTLTVWKKSPEKNERHTC
Question: B1 was tested. Which PKR phosphorylation (GFP-PACT, O75569) did it give?
Answer: Its PKR phosphorylation is “this was accompanied by an increase in PKR phosphorylation during lysosomal damage”.

B2: FLAG-PKR (protein)
chain: MAGDLSAGFFMEELNTYRQKQGVVLKYQELPNSGPPHDRRFTFQVIIDGREFPEGEGRSKKEAKNAAAKLAVEILNKEKKAVSPLLLTTTNSSEGLSMGNYIGLINRIAQKKRLTVNYEQCASGVHGPEGFHYKCKMGQKEYSIGTGSTKQEAKQLAAKLAYLQILSEETSVKSDYLSSGSFATTCESQSNSLVTSTLASESSSEGDFSADTSEINSNSDSLNSSSLLMNGLRNNQRKAKRSLAPRFDLPDMKETKYTVDKRFGMDFKEIELIGSGGFGQVFKAKHRIDGKTYVIKRVKYNNEKAEREVKALAKLDHVNIVHYNGCWDGFDYDPETSDDSLESSDYDPENSKNSSRSKTKCLFIQMEFCDKGTLEQWIEKRRGEKLDKVLALELFEQITKGVDYIHSKKLIHRDLKPSNIFLVDTKQVKIGDFGLVTSLKNDGKRTRSKGTLRYMSPEQISSQDYGKEVDLYALGLILAELLHVCDTAFETSKFFTDLRDGIISDIFDKKEKTLLQKLLSKKPEDRPNTSEILRTLTVWKKSPEKNERHTC
Question: B2 was tested. Which PKR phosphorylation (endogenous PACT, O75569) did it give?
Answer: The PKR phosphorylation was “increased PKR phosphorylation under the same conditions”.
